# Results taken from PMC5603729 (Cell Reports, 2017).
# T1: S. cerevisiae Rrp45 (subunit of the crystallised Exo-9) (S. cerevisiae, UniProt Q05636 1-305)
# T1 sequence: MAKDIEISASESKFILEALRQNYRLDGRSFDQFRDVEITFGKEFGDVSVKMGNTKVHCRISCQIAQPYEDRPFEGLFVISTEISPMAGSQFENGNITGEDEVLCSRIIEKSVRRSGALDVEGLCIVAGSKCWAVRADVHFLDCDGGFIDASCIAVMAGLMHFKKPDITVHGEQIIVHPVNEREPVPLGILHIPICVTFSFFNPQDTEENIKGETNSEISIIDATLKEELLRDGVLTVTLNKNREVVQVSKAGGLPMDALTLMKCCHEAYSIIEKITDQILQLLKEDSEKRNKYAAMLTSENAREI
# Key:
# [1] = target: S. cerevisiae Exo-9 core complex (recombinant, untagged) (S. cerevisiae, UniProt P46948;Q12277;P25359;Q05636;P53256;P48240;P38792;Q08285;P53859); test: MST
# [2] = target: T1, S. cerevisiae Rrp45 (subunit of the …); test: crystal structure
Binder,Kd [1] [nM],binding result [2]
"Mpp6^FL S184C labeled with red-maleimide (natural protein, cysteine-reactive fluorophore (red-maleimide) on the introduced cysteine 184) MSANNGVTGKLSSRVMNMKFMKFGKTDDEESSNSNTPSNINSDVEPIEQKGKLFGLDDSAWDLNSYKDDLKKISGKEKKKVKRVVYKKRPNLIISNVGYSELRKPEGVISGRKTFGDNSDDSGSRKRKFDEGEQNEDEKRDAKDKEFTGSQDDGEDEYDLDKLFKDSIKKKKTNHNGKNKNRNCKK",~82,–
S. cerevisiae Rrp40 (subunit of the crystallised Exo-9) (natural protein) MSTFIFPGDSFPVDPTTPVKLGPGIYCDPNTQEIRPVNTGVLHVSAKGKSGVQTAYIDYSSKRYIPSVNDFVIGVIIGTFSDSYKVSLQNFSSSVSLSYMAFPNASKKNRPTLQVGDLVYARVCTAEKELEAEIECFDSTTGRDAGFGILEDGMIIDVNLNFARQLLFNNDFPLLKVLAAHTKFEVAIGLNGKIWVKCEELSNTLACYRTIMECCQKNDTAAFKDIAKRQFKEILTVKEE,–,binds
